Laboratory results taken from patent US8114832.

Assays:
[1] = molecular target: T1, human fibrin α-chain(148-160) amyloid fragment with Lys157Gly mutation (FP13)
T1 chain: KRLEVDIDIGIRS

[2] = molecular target: Human amyloid-β (1-40) Dutch type
[3] = molecular target: glycated hemoglobin (Hb-AGE), P69905
[4] = molecular target: modified gelatin for infusion stored at 37° C.
[5] = molecular target: TTR11
[6] = molecular target: LAM12
[7] = molecular target: native Hb, P69905
[8] = molecular target: human-modified gelatin (Gelofusine), stored at 4° C.
[9] = molecular target: T2, non-amyloid fragment FP10 of human fibrin α-chain(148-157)
T2 chain: KRLEVDIDIK

[10] = molecular target: T3, freshly dissolved FP13 K157G
T3 chain: KRLEVDIDIGIRS

[11] = molecular target: T4, mIAPP
T4 sequence (P12968 38-74, species assumed, looked up): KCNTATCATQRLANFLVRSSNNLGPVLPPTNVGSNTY

[12] = molecular target: endostatin, P39060
Chain of endostatin, P39060 (P39060 whole entry, looked up): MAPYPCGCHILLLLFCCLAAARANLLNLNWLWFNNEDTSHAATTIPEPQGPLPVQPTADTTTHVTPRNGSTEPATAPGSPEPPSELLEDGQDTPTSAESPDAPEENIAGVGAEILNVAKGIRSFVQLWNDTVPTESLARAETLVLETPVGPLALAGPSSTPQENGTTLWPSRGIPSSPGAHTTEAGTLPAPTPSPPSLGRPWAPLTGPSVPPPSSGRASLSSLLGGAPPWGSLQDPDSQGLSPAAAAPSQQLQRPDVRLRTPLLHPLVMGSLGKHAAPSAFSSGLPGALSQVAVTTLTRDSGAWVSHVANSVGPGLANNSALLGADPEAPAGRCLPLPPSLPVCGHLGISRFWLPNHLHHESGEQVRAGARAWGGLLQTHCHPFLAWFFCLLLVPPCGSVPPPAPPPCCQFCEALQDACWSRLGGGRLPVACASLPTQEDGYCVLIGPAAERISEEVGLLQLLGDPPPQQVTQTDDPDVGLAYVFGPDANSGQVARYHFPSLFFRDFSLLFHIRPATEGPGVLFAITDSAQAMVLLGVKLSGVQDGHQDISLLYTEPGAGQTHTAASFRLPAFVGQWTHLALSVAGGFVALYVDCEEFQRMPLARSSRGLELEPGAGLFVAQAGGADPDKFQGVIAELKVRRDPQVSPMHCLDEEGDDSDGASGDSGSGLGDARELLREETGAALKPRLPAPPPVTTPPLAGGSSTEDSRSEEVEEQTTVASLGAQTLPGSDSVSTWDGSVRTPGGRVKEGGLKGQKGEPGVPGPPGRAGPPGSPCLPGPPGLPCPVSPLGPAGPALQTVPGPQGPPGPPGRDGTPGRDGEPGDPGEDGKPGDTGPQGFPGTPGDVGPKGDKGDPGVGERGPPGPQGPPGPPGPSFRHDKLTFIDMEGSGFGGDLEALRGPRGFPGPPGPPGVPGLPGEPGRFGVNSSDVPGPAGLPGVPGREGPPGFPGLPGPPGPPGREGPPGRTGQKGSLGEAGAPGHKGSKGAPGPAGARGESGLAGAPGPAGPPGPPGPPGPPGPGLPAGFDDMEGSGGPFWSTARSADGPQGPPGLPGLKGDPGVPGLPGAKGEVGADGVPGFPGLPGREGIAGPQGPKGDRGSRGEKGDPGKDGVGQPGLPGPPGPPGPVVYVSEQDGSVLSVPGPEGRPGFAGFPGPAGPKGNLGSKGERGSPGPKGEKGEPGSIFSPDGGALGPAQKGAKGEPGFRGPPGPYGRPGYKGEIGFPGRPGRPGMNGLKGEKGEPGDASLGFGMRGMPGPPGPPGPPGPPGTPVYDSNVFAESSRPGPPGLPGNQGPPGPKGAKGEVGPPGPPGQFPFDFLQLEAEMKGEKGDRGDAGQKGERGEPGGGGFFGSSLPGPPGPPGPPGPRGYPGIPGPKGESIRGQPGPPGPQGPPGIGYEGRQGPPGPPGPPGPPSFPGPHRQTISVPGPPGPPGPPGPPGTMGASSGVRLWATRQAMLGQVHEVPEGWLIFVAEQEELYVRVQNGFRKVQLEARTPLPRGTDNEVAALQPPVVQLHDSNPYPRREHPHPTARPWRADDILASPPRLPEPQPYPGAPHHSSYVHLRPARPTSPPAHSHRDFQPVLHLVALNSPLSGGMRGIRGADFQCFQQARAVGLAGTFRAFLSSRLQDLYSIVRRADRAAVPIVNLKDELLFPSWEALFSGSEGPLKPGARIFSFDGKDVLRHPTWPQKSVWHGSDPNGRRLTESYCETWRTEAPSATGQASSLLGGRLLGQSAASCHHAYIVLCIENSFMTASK

[13] = molecular target: Native MSA (nMSA), P07724
Chain of Native MSA (nMSA), P07724 (P07724 25-608): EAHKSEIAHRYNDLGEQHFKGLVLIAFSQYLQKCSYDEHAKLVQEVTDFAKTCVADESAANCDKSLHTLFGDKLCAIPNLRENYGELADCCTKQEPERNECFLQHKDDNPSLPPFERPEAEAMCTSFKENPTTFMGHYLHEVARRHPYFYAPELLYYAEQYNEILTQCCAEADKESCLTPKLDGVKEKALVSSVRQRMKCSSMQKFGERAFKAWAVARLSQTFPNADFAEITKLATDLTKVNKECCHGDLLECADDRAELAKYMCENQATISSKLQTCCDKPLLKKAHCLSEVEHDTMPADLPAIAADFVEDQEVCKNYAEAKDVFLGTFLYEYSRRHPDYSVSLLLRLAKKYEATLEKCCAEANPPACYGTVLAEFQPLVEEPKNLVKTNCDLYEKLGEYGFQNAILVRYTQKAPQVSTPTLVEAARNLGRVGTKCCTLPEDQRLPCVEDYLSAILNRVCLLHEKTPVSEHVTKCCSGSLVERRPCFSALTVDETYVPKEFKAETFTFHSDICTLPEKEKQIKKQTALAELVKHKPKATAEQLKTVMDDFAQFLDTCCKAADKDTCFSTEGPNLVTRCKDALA

[14] = molecular target: T5, heat-denatured OVA (dOVA), P01012
T5 chain: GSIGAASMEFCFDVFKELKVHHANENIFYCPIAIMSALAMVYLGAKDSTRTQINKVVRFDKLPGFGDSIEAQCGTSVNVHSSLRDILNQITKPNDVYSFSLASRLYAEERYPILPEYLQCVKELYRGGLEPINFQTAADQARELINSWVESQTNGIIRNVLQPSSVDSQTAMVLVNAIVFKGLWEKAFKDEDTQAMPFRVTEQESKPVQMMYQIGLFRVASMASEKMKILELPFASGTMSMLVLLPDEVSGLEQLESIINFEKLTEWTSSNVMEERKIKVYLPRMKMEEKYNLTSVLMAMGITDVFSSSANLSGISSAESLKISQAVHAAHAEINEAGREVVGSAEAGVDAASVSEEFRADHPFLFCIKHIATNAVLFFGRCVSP

[15] = molecular target: heat-denatured MSA, P07724
Chain of heat-denatured MSA, P07724 (P07724 25-608): as the sequence (P07724 25-608) above

[16] = molecular target: heat/acid denatured glucagon, P01275
Chain of heat/acid denatured glucagon, P01275 (P01275 53-81): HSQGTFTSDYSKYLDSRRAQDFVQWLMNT

[17] = molecular target: native glucagon, P01275
[18] = molecular target: reduced-alkylated MSA (alkyl-MSA), P07724
Chain of reduced-alkylated MSA (alkyl-MSA), P07724 (P07724 25-608): as the sequence (P07724 25-608) above

Chain of native Hb, P69905 (P69905 2-142, chain 1 of 2): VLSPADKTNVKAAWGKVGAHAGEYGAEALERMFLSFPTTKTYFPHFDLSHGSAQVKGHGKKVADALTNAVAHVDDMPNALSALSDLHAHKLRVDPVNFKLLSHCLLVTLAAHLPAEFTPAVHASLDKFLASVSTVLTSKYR
Chain of native Hb, P69905 (chain, as listed by the source, chain 2 of 2): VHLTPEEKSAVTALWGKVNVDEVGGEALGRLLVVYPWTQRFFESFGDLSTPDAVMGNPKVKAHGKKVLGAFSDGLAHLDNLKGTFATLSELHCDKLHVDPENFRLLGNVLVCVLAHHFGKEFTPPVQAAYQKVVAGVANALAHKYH
Chain of glycated hemoglobin (Hb-AGE), P69905 (P69905 2-142, chain 1 of 2): as the sequence (P69905 2-142, chain 1 of 2) above
Chain of glycated hemoglobin (Hb-AGE), P69905 (chain, as listed by the source, chain 2 of 2): as the sequence (chain, as listed by the source, chain 2 of 2) above

B1: factor XII (protein)
chain: IPPWEAPKEHKYKAEEHTVVLTVTGEPCHFPFQYHRQLYHKCTHKGRPGPQPWCATTPNFDQDQRWGYCLEPKKVKDHCSKHSPCQKGGTCVNMPSGPHCLCPQHLTGNHCQKEKCFEPQLLRFFHKNEIWYRTEQAAVARCQCKGPDAHCQRLASQACRTNPCLHGGRCLEVEGHRLCHCPVGYTGAFCDVDTKASCYDGRGLSYRGLARTTLSGAPCQPWASEATYRNVTAEQARNWGLGGHAFCRNPDNDIRPWCFVLNRDRLSWEYCDLAQCQTPTQAAPPTPVSPRLHVPLMPAQPAPPKPQPTTRTPPQSQTPGALPAKREQPPSLTRNGPLSCGQRLRKSLSSMTRVVGGLVALRGAHPYIAALYWGHSFCAGSLIAPCWVLTAAHCLQDRPAPEDLTVVLGQERRNHSCEPCQTLAVRSYRLHEAFSPVSYQHDLALLRLQEDADGSCALLSPYVQPVCLPSGAARPSETTLCQVAGWGHQFEGAEEYASFLQEAQVPFLSLERCSAPDVHGSSILPGMLCAGFLEGGTDACQGDSGGPLVCEDQAAERRLTLQGIISWGSGCGDRNKPGVYTDVAYYLAWIREHTVS
auto-activation of purified factor XII, substrate S-2222 [1]: FP13 K157G and Hb-AGE have a potency to induce auto-activation that was similar to the established surface activator DXS500k
conversion of Chromozym PK, upon formation of kallikrein from prekallikrein by activated factor XII [1]: amyloid-like peptide aggregates of FP13 and Aβ stimulate the activation of factor XII
auto-activation of purified factor XII, substrate S-2222 [2]: the potency of the Aβ(1-40) E22Q was somewhat lower
conversion of Chromozym PK, upon formation of kallikrein from prekallikrein by activated factor XII [2]: amyloid-like peptide aggregates of FP13 and Aβ stimulate the activation of factor XII
auto-activation of purified factor XII, substrate S-2222 [3]: FP13 K157G and Hb-AGE have a potency to induce auto-activation that was similar to the established surface activator DXS500k
chromogenic kallikrein activity assay [4]: Only gelatin kept at 37 °C activated factor XII
factor XII/kallikrein chromogenic assay [5]: cross-β structure conformation rich peptides LAM12 and TTR11 stimulate factor XII activation, to a similar extent as kaolin
factor XII/kallikrein chromogenic assay [6]: cross-β structure conformation rich peptides LAM12 and TTR11 stimulate factor XII activation, to a similar extent as kaolin
auto-activation of purified factor XII, substrate S-2222 [7]: Freshly dissolved native Hb, ultracentrifuged for one hour at 100,000*g, and freshly dissolved FP13 K157G did not or hardly auto-activate factor XII (not shown)
chromogenic kallikrein activity assay [8]: Only gelatin kept at 37 °C activated factor XII
conversion of Chromozym PK, upon formation of kallikrein from prekallikrein by activated factor XII [9]: non-amyloid controls FP10 and mIAPP do not activate factor XII
auto-activation of purified factor XII, substrate S-2222 [10]: Freshly dissolved native Hb, ultracentrifuged for one hour at 100,000*g, and freshly dissolved FP13 K157G did not or hardly auto-activate factor XII (not shown)
conversion of Chromozym PK, upon formation of kallikrein from prekallikrein by activated factor XII [11]: non-amyloid controls FP10 and mIAPP do not activate factor XII

B2: tissue-type plasminogen activator (tPA) (protein)
chain: SYQVICRDEKTQMIYQQHQSWLRPVLRSNRVEYCWCNSGRAQCHSVPVKSCSEPRCFNGGTCQQALYFSDFVCQCPEGFAGKCCEIDTRATCYEDQGISYRGTWSTAESGAECTNWNSSALAQKPYSGRRPDAIRLGLGNHNYCRNPDRDSKPWCYVFKAGKYSSEFCSTPACSEGNSDCYFGNGSAYRGTHSLTESGASCLPWNSMILIGKVYTAQNPSAQALGLGKHNYCRNPDGDAKPWCHVLKNRRLTWEYCDVPSCSTCGLRQYSQPQFRIKGGLFADIASHPWQAAIFAKHRRSPGERFLCGGILISSCWILSAAHCFQERFPPHHLTVILGRTYRVVPGEEEQKFEVEKYIVHKEFDDDTYDNDIALLQLKSDSSRCAQESSVVRTVCLPPADLQLPDWTECELSGYGKHEALSPFYSERLKEAHVRLYPSSRCTSQHLLNRTVTDNMLCAGDTRSGGPQANLHDACQGDSGGPLVCLNDGRMTLVGIISWGLGCGQKDVPGVYTKVTNYLDWIRDNMRP
chromogenic Plg-activation assay [1]: The positive control was amyloid fibrin peptide FP13
tPA activation assay [12]: the absence of tPA activating properties in 100 µg ml^-1 endostatin
Plg-activation assay [13]: native MSA enhanced ThT fluorescence to some extent, but this was not reflected by stimulation of tPA activation
Plg-activation assay [14]: The presence of the cross-β structure conformation was established with ThT fluorescence and Plg-activation assays and by TEM imaging
tPA activation assay [15]: Although heat-denatured MSA and alkylated MSA enhance ThT fluorescence to a similar extent, they differ in tPA activating potential
tPA activation assay [16]: a potent activator of tPA was obtained
tPA activation assay [17]: at high glucagon concentration, also native glucagon has some tPA activating potential
tPA activation assay [18]: Although heat-denatured MSA and alkylated MSA enhance ThT fluorescence to a similar extent, they differ in tPA activating potential
